Measured values as given in the nanobody polyreactivity screen of Harvey et al. (2022).

experiment: yeast display, Sf9 membrane polyspecificity reagent, FACS + sequencing; frameworks hold sequencing errors
In short: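 Using colony PCR, genes from sorted yeast display clones were amplified, then sequenced on MiSeq at 2 × 250 and filtered by CDR length. The clones had been stained with 10% biotinylated, detergent-solubilized Sf9 membrane reagent for 1 hour at 4 °C and sorted by FACS into low and high (top ~1%) gates on anti-HA and streptavidin fluorescence. Polyreactivity labels come from the gate of origin.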

Question: With “QVQLVESGGGLVQAGGSLRLSCAASGSTFYLNAMGWYRQAPGKERELVASITWSGGRTYYADSVKGRFTISRDNAKNTVYLQMNSLKPEDTAVYYCAADPVWGRYIKYDYWGQGTQVTVSS” as the sequence, how does the “polyreactivity (PSR sort gate)” value read?
Answer: high polyreactivity

Question: With “QVQLVESGGGLVQAGGSLRLSCAASGSTFYLNAMGWYRQEPGKERELVAAISSGGRTYYADSVKGRFTISRDNAKNTVYFQKNSLKPEDTAVYYCAATRLYWKIFYGDGDYWGQGTQVTVSS” as the sequence, how does the “polyreactivity (PSR sort gate)” value read?
Answer: high polyreactivity

Question: For “QVQLVESGGGLVQAGGSLRLSCAASGSTFYLNTMGWYRQAPGKERELVASISRSGGTTYYADSVKGRFTISRDNAKNTVYLQMNSLKPEDTAVYYCAKRYYFTHAYSRTFYYWGQGTQVTVSS”, which “polyreactivity (PSR sort gate)” value is on record?
Answer: high polyreactivity

Question: Which “polyreactivity (PSR sort gate)” value does the source give for “QVQLVESGGGLVQAGGSLRLSCAASGSTFYLYAMGWYRQAPGKERELVAAISWSDDTTYYADSVKGRFTISRDNAKNTVYLQMNSLKPEDTAVYYCATVPHYYYDYDYWGQGTQVTVSS” here?
Answer: low polyreactivity

Question: Which “polyreactivity (PSR sort gate)” value does the source give for “QVQLVESGGGLVQAGGSLRLSCAASGSTFYLYAMGWYRQAPGKERELVAAITRGGTTNYADSVKGRFTISRDNAKNTVYLQMNSLKPEDTAVYYCAKEVTTLLSLYEIVDRDYWGQGTQVTVSS” here?
Answer: low polyreactivity

Question: With “QVQLVESGGGLVQAGGSLRLSCAASGSTFYLYPMGWLRQAPGKERELVAAIRQSGGSTYYADSVKGRFTISRDNAKNTVYLQMNSLKPEDTAVYYCAARPSYRLGQRYYYWGQGTQVTVSS” as the sequence, how does the “polyreactivity (PSR sort gate)” value read?
Answer: high polyreactivity

Question: Which “polyreactivity (PSR sort gate)” value does the source give for “QVQLVESGGGLVQAGGSLRLSCAASGSTFYLYTMGWYIQAPGKERELVAAISPSGGSTRYADSVKGRFTISRDNAKNTVYLQMNSLKPEDTAVYYCAARSTVYPRPHERDYWGQGTQVTVSS” here?
Answer: high polyreactivity

Question: For “QVQLVESGGGLVQAGGSLRLSCAASGSTFYNNAMGWYRQAPGKERELVAAISNVSTYYADSVKGRFTISRDNAKNTVYLQMNSLKPEDTAVYYCAARGLLWYYSWRYYYWGQGTQVTVSS”, which “polyreactivity (PSR sort gate)” value is on record?
Answer: low polyreactivity

Question: With “QVQLVESGGGLVQAGGSLRLSCAASGSTFYNNAMGWYRQAPGKERELVAAISNVSTYYADSVKGRFTISRDNAKNTVYLQMNSLKPEDTAVYYCAARVLLWYYSWRYYYWGQGTQVTVSS” as the sequence, how does the “polyreactivity (PSR sort gate)” value read?
Answer: low polyreactivity

Question: With “QVQLVESGGGLVQAGGSLRLSCAASGSTFYNNAMGWYRQAPGKERELVAAITASGGRTYYADSVKGRFTISRDNAKNTVYLQMNSLKPEDTAVYYCAADGHAGYPIDEYYYWGQGTQVTVSS” as the sequence, how does the “polyreactivity (PSR sort gate)” value read?
Answer: high polyreactivity

Question: For “QVQLVESGGGLVQAGGSLRLSCAASGSTFYNNAMGWYRQAPGKERELVATISASSTSTYYADSVKGRFTISRDNAKNTVYLQMNSLKPEDTAVYYCAKDYVHGSTYGYYWYGYDYWAQGTQVTVSS”, which “polyreactivity (PSR sort gate)” value is on record?
Answer: low polyreactivity

Question: Which “polyreactivity (PSR sort gate)” value does the source give for “QVQLVESGGGLVQAGGSLRLSCAASGSTFYNYAMGWYRQAPGKERELVAAISIGGSTYYADSVKGRFTISRDNAKNTVYLQMNSLKPEDTAVYYCAADDGDFYPIDDYWGQGTQVTVSS” here?
Answer: low polyreactivity

Question: With “QVQLVESGGGLVQAGGSLRLSCAASGSTFYNYAMGWYRQAPGKERELVASITWNGGSTYYADSVKGRFTISRDNAKNTVYLQMNSLKPEDTAVYYCAAEWTWTYPYDYWGQGTQVTVSS” as the sequence, how does the “polyreactivity (PSR sort gate)” value read?
Answer: low polyreactivity

Question: With “QVQLVESGGGLVQAGGSLRLSCAASGSTFYPNAMGWYRQAPGKERELVAAISRGTRTKYADSVKGRFTISRDNAKNTVYLQMNSLKPEDTAVYYCAADTGTGLDWGQGTQVTVSS” as the sequence, how does the “polyreactivity (PSR sort gate)” value read?
Answer: high polyreactivity

Question: Which “polyreactivity (PSR sort gate)” value does the source give for “QVQLVESGGGLVQAGGSLRLSCAASGSTFYPNAMGWYRQAPGKERELVADISYSGGRTYYADSVKGRFTISRDNAKNTVYLQMNSLKPEYTAVYYCAARKVTYHYQWMDYWGQGTQVTVSS” here?
Answer: low polyreactivity

Question: For “QVQLVESGGGLVQAGGSLRLSCAASGSTFYPYAMGWYRQAPGKERELVAAISLSDTITYYADSVKGRFTISRDNAKNTVYLQMNSLKPEDTAVYYCAAETPGFVLYEYWGQGTQVTVSS”, which “polyreactivity (PSR sort gate)” value is on record?
Answer: high polyreactivity

Question: With “QVQLVESGGGLVQAGGSLRLSCAASGSTFYPYAMGWYRQAPGKERELVADITNSGSTYYADSVKGRFTISRDNAKNTVYLQMNCLKPEDTAVYYCSASVYSVADYYYWGQGTQVTVSS” as the sequence, how does the “polyreactivity (PSR sort gate)” value read?
Answer: low polyreactivity

Question: With “QVQLVESGGGLVQAGGSLRLSCAASGSTFYPYAMGWYRQAPGKERELVAGIRSGGSTNYADSVKGRFTISRDNAKNTVYLQMNSLKPEDTAVYYCAARRWRTQDRSHFDYWGQGTQVTVSS” as the sequence, how does the “polyreactivity (PSR sort gate)” value read?
Answer: low polyreactivity

Question: For “QVQLVESGGGLVQAGGSLRLSCAASGSTFYPYAMGWYRQAPGKERELVASISSRGGTTYYADSVKGRFTISRDNAKNTVYLQMNSLKPEDTAVYYCAARLTYAERKWPTKYYWGQGTQVTVSS”, which “polyreactivity (PSR sort gate)” value is on record?
Answer: high polyreactivity

Question: Which “polyreactivity (PSR sort gate)” value does the source give for “QVQLVESGGGLVQAGGSLRLSCAASGSTFYPYTMGWYRQAPGKERELFAAITSGGNTNYADSVKGRFTISRDNAKNTVYLQMNSLKPEDTAVYYCNAEPEGTTGNYFPYDYWGQGTQVTVSS” here?
Answer: low polyreactivity

Question: Which “polyreactivity (PSR sort gate)” value does the source give for “QVQLVESGGGLVQAGGSLRLSCAASGSTFYPYTMGWYRQAPGKERELVAAITSGGNTNYADSVKGRFTISRDNAKNTVYLQMNSLKPEDTAVYYCNAEPEGTTGNYFPYDYWGQGTQVTVSS” here?
Answer: low polyreactivity

Question: For “QVQLVESGGGLVQAGGSLRLSCAASGSTFYQNAMGWYRQAPGKEMELVAAISSSGRTYYADSVKGRFTISRDNAKNTVFLQMNSLKPEDTAVYYCAFGAYGSLYSIRVAYGRMDYWGQGTQVTVSS”, which “polyreactivity (PSR sort gate)” value is on record?
Answer: high polyreactivity

Question: For “QVQLVESGGGLVQAGGSLRLSCAASGSTFYQYAMGWYRQAPGKERELGAAITRSGGSTYYADSVKGRFTISRDNAKNTVYLQMNSLKPEDPAVYYCAADRARRGIRDYYWGQGTQVTVSS”, which “polyreactivity (PSR sort gate)” value is on record?
Answer: high polyreactivity

Question: With “QVQLVESGGGLVQAGGSLRLSCAASGSTFYQYVMGWYRQAPGKERELVAAISGSGGSTYYADSVKGRFTISRDNAKNTVYLQMNSLKPEDTAVYYCAAVGRSKRDGYWGQGTQVTVSS” as the sequence, how does the “polyreactivity (PSR sort gate)” value read?
Answer: high polyreactivity

Question: With “QVQLVESGGGLVQAGGSLRLSCAASGSTFYRFAMGWYRTAPGKERELVAAISRSGGSTYYADTVKGRFTISRDNAKNTVYLQMNSLKPEDTAVYYCAAQYTFYYRSWSDYWGQGTQVTVSS” as the sequence, how does the “polyreactivity (PSR sort gate)” value read?
Answer: high polyreactivity

Question: For “QVQLVESGGGLVQAGGSLRLSCAASGSTFYRNAMGWYRQAPGKERELVAAIRKTGGSTHYADSVKGRFTISRDNAKNTVYLQMNSLKPEDTAVYYCNATYIYGWYNYWGQGTQVTVSS”, which “polyreactivity (PSR sort gate)” value is on record?
Answer: low polyreactivity

Question: Which “polyreactivity (PSR sort gate)” value does the source give for “QVQLVESGGGLVQAGGSLRLSCAASGSTFYRNAMGWYRQAPGKERELVAGISWRGGSTYYADSVKGRFTISRDNAKNTVYLQMNSLKPEDTAVYYCNTLGAGGYSSPADYYYWGQGTQVTVSS” here?
Answer: high polyreactivity

Question: Which “polyreactivity (PSR sort gate)” value does the source give for “QVQLVESGGGLVQAGGSLRLSCAASGSTFYRNAMGWYRQAPGKERELVATINRGGSTYYADSVKGRFTISRDNAKNTVYLQRNSLNPEDTAVYYCAKDSYYAGRFIYTPRAKYGYWGQGTQVTVSS” here?
Answer: high polyreactivity

Question: With “QVQLVESGGGLVQAGGSLRLSCAASGSTFYRNARAWYRQAPGKERELVAGISYGGGSTYYADSVKGRFTISRDNAKNTVYLQMNSLKPEDTAVYYCNAVWVKRHYYYWGQGSQVTVSS” as the sequence, how does the “polyreactivity (PSR sort gate)” value read?
Answer: low polyreactivity

Question: Which “polyreactivity (PSR sort gate)” value does the source give for “QVQLVESGGGLVQAGGSLRLSCAASGSTFYRNTMGWYRQAPGKERELVAAISRTGASTHYADSVKGRFTISRDNAKNTVYLQMNSLKPEDTAVYYCNAVPAIGKYYGGGYWGQGTQVTVSS” here?
Answer: high polyreactivity

Question: Which “polyreactivity (PSR sort gate)” value does the source give for “QVQLVESGGGLVQAGGSLRLSCAASGSTFYRYAKGRYRQPPGKERELVASITRNVGSTYYADSVKGRFTISRDNAKNTVYLQMKSVKPEDTAVYFCAAKSGSFVHGGYQTPVYGSDYWGQGSQVTVSS” here?
Answer: high polyreactivity

Question: With “QVQLVESGGGLVQAGGSLRLSCAASGSTFYRYAMGWYRQAPGKERELVAAISNSGGSTNYADSVKGRFTISRDNAKNTVYLQMNSLKPEDTAVYYCAADPYDLVWVEDYDYWGQGTQVTVSS” as the sequence, how does the “polyreactivity (PSR sort gate)” value read?
Answer: high polyreactivity

Question: For “QVQLVESGGGLVQAGGSLRLSCAASGSTFYRYAMGWYRQAPGKERELVAAISSSGGSTYYADSVKGRFTISRDNAKNTVYLQMNSLKPEDTAVYYCNAAYRVRRFDYWGQGTQVTVSS”, which “polyreactivity (PSR sort gate)” value is on record?
Answer: low polyreactivity

Question: Which “polyreactivity (PSR sort gate)” value does the source give for “QVQLVESGGGLVQAGGSLRLSCAASGSTFYRYAMGWYRQAPGKERELVAAITWNGGSTYYADSVKGRFTISRDNAKNTVYLQMNSLKPEDTAVYYCNKVSRRDTYEYDYWGQGTQVTVSS” here?
Answer: high polyreactivity

Question: With “QVQLVESGGGLVQAGGSLRLSCAASGSTFYRYAMGWYRQAPGKERELVARITQNGGSTYYADSVKGRFTISRDNAKNTVYLQMNSLKPEDTAVYYCADRWISVLSYGKYDYWGQGTQVTVSS” as the sequence, how does the “polyreactivity (PSR sort gate)” value read?
Answer: high polyreactivity

Question: For “QVQLVESGGGLVQAGGSLRLSCAASGSTFYRYDMGWYRQAPGKERELVAAITSVGSTKYADSVKGRFTISRDNAKNTVYLQMNSLKPEDNAVYYCNVDYIDWGQWYTNYPLSGYDYWGQGTQVTVSS”, which “polyreactivity (PSR sort gate)” value is on record?
Answer: low polyreactivity

Question: Which “polyreactivity (PSR sort gate)” value does the source give for “QVQLVESGGGLVQAGGSLRLSCAASGSTFYRYMGWYRQAPGKERELVADISSSGDTYYADSVKGRFTISRDNAKNTVYLQMNSLKPEDTAVYYCAADVSVGYWWSYSMDYWGQGTQVTVSS” here?
Answer: high polyreactivity

Question: For “QVQLVESGGGLVQAGGSLRLSCAASGSTFYRYTMGWYRQAPGKERELVAAISRSGGRTYYADSVKGRFTISRDKAKNTVSVQMNSLKPEDTAVYYCAAARRYGRYFGYPMEYWGQGTQVTVTS”, which “polyreactivity (PSR sort gate)” value is on record?
Answer: high polyreactivity

Question: For “QVQLVESGGGLVQAGGSLRLSCAASGSTFYSNAMGWYRQAPGKERELVAGISGSGGSSYYADSVKGRFTFSRDNAKNTVKLQMNSLKPEDTAVYYCNARKTRSYFRFDSWGQGTQVTVSS”, which “polyreactivity (PSR sort gate)” value is on record?
Answer: low polyreactivity

Question: With “QVQLVESGGGLVQAGGSLRLSCAASGSTFYSNAMGWYRQAPGKERELVARISWIGTSTYYADSVKGRFTISRDNAKNTVYLQMNSLKPEDTAVYDCAAGTVGPRRRRYIWLDYWGQGTQVTVSS” as the sequence, how does the “polyreactivity (PSR sort gate)” value read?
Answer: high polyreactivity

Question: With “QVQLVESGGGLVQAGGSLRLSCAASGSTFYSYAMGWYRQAPGKEREFVAAITDSGGSTYYADSVTGRFTISRDNAKNTVYLQMNSLKPEDTAVYYCAKRQYQSYIRGPYYYWGQGTQVTVSS” as the sequence, how does the “polyreactivity (PSR sort gate)” value read?
Answer: low polyreactivity

Question: For “QVQLVESGGGLVQAGGSLRLSCAASGSTFYSYAMGWYRQAPGKERELVAAISWDGGRTYYADSVKGRFTISRDNAKNTVYLQMNSLKPEDTAVYYCSADYPTYRHYYWGQGTQVTVSS”, which “polyreactivity (PSR sort gate)” value is on record?
Answer: low polyreactivity

Question: With “QVQLVESGGGLVQAGGSLRLSCAASGSTFYSYAMGWYRQAPGKERELVAAISWRGGSTYYADSVKGRFTISRDNAKNTVYLQMNSLKPEDPEVYYCAAYRGDGYEYWGQGTQVTVSS” as the sequence, how does the “polyreactivity (PSR sort gate)” value read?
Answer: high polyreactivity
